According to IntAct's records for PubMed 31515488:

B1: Cyclin-dependent kinase 4 inhibitor C (Homo sapiens), P42773 (parent)
chain: MAEPWGNELASAAARGDLEQLTSLLQNNVNVNAQNGFGRTALQVMKLGNPEIARRLLLRGANPDLKDRTGFAVIHDAARAGFLDTLQTLLEFQADVNIEDNEGNLPLHLAAKEGHLRVVEFLVKHTASNVGHRNHKGDTACDLARLYGRNEVVSLMQANGAGGATNLQ
B2: RING finger protein 11 (Homo sapiens), Q9Y3C5 (parent)
chain: MGNCLKSPTSDDISLLHESQSDRASFGEGTEPDQEPPPPYQEQVPVPVYHPTPSQTRLATQLTEEEQIRIAQRIGLIQHLPKGVYDPGRDGSEKKIRECVICMMDFVYGDPIRFLPCMHIYHLDCIDDWLMRSFTCPSCMEPVDAALLSSYETN
B3: Dynein light chain 2, cytoplasmic (Homo sapiens), Q96FJ2 (parent)
chain: MSDRKAVIKNADMSEDMQQDAVDCATQAMEKYNIEKDIAAYIKKEFDKKYNPTWHCIVGRNFGSYVTHETKHFIYFYLGQVAILLFKSG
partner: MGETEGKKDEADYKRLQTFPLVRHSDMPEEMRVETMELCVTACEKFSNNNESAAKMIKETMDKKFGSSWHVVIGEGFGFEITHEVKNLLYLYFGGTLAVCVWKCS
B4: Dynein light chain Tctex-type 3 (Homo sapiens), P51808 (parent)
chain: MEEYHRHCDEVGFNAEEAHNIVKECVDGVLGGEDYNHNNINQWTASIVEQSLTHLVKLGKAYKYIVTCAVVQKSAYGFHTASSCFWDTTSDGTCTVRWENRTMNCIVNVFAIAIVL
B5: Zinc finger and BTB domain-containing protein 9 (Homo sapiens), Q96C00 (parent)
chain: METPTPLPPVPASPTCNPAPRTIQIEFPQHSSSLLESLNRHRLEGKFCDVSLLVQGRELRAHKAVLAAASPYFHDKLLLGDAPRLTLPSVIEADAFEGLLQLIYSGRLRLPLDALPAHLLVASGLQMWQVVDQCSEILRELETSGGGISARGGNSYHALLSTTSSTGGWCIRSSPFQTPVQSSASTESPASTESPVGGEGSELGEVLQIQVEEEEEEEEDDDDEDQGSATLSQTPQPQRVSGVFPRPHGPHPLPMTATPRKLPEGESAPLELPAPPALPPKIFYIKQEPFEPKEEISGSGTQPGGAKEETKVFSGGDTEGNGELGFLLPSGPGPTSGGGGPSWKPVDLHGNEILSGGGGPGGAGQAVHGPVKLGGTPPADGKRFGCLCGKRFAVKPKRDRHIMLTFSLRPFGCGICNKRFKLKHHLTEHMKTHAGALHACPHCGRRFRVHACFLRHRDLCKGQGWATAHWTYK
partner: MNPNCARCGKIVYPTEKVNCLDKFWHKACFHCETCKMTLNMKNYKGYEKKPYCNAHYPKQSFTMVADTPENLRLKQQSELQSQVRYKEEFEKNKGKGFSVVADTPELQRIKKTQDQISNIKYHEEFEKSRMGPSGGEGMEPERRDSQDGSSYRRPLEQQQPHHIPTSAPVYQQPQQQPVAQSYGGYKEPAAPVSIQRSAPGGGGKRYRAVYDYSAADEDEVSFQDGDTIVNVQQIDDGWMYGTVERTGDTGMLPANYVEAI
B6: Fructose-bisphosphate aldolase C (Homo sapiens), P09972 (parent)
chain: MPHSYPALSAEQKKELSDIALRIVAPGKGILAADESVGSMAKRLSQIGVENTEENRRLYRQVLFSADDRVKKCIGGVIFFHETLYQKDDNGVPFVRTIQDKGIVVGIKVDKGVVPLAGTDGETTTQGLDGLSERCAQYKKDGADFAKWRCVLKISERTPSALAILENANVLARYASICQQNGIVPIVEPEILPDGDHDLKRCQYVTEKVLAAVYKALSDHHVYLEGTLLKPNMVTPGHACPIKYTPEEIAMATVTALRRTVPPAVPGVTFLSGGQSEEEASFNLNAINRCPLPRPWALTFSYGRALQASALNAWRGQRDNAGAATEEFIKRAEVNGLAAQGKYEGSGEDGGAAAQSLYIANHAY
partner: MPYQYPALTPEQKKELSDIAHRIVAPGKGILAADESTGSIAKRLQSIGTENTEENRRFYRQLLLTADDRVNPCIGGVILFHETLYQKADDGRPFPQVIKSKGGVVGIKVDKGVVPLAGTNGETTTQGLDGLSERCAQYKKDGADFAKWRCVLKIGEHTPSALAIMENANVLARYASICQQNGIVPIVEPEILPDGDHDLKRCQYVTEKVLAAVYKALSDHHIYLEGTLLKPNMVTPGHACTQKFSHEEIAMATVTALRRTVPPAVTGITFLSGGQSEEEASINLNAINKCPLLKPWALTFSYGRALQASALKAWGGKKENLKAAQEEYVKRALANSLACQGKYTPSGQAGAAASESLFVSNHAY
B7: Kinesin-like protein KIF20A (Homo sapiens), O95235 (parent)
chain: MSQGILSPPAGLLSDDDVVVSPMFESTAADLGSVVRKNLLSDCSVVSTSLEDKQQVPSEDSMEKVKVYLRVRPLLPSELERQEDQGCVRIENVETLVLQAPKDSFALKSNERGIGQATHRFTFSQIFGPEVGQASFFNLTVKEMVKDVLKGQNWLIYTYGVTNSGKTHTIQGTIKDGGILPRSLALIFNSLQGQLHPTPDLKPLLSNEVIWLDSKQIRQEEMKKLSLLNGGLQEEELSTSLKRSVYIESRIGTSTSFDSGIAGLSSISQCTSSSQLDETSHRWAQPDTAPLPVPANIRFSIWISFFEIYNELLYDLLEPPSQQRKRQTLRLCEDQNGNPYVKDLNWIHVQDAEEAWKLLKVGRKNQSFASTHLNQNSSRSHSIFSIRILHLQGEGDIVPKISELSLCDLAGSERCKDQKSGERLKEAGNINTSLHTLGRCIAALRQNQQNRSKQNLVPFRDSKLTRVFQGFFTGRGRSCMIVNVNPCASTYDETLHVAKFSAIASQLVHAPPMQLGFPSLHSFIKEHSLQVSPSLEKGAKADTGLDDDIENEADISMYGKEELLQVVEAMKTLLLKERQEKLQLEMHLRDEICNEMVEQMQQREQWCSEHLDTQKELLEEMYEEKLNILKESLTSFYQEEIQERDEKIEELEALLQEARQQSVAHQQSGSELALRRSQRLAASASTQQLQEVKAKLQQCKAELNSTTEELHKYQKMLEPPPSAKPFTIDVDKKLEEGQKNIRLLRTELQKLGESLQSAERACCHSTGAGKLRQALTTCDDILIKQDQTLAELQNNMVLVKLDLRKKAACIAEQYHTVLKLQGQVSAKKRLGTNQENQQPNQQPPGKKPFLRNLLPRTPTCQSSTDCSPYARILRSRRSPLLKSGPFGKKY
partner: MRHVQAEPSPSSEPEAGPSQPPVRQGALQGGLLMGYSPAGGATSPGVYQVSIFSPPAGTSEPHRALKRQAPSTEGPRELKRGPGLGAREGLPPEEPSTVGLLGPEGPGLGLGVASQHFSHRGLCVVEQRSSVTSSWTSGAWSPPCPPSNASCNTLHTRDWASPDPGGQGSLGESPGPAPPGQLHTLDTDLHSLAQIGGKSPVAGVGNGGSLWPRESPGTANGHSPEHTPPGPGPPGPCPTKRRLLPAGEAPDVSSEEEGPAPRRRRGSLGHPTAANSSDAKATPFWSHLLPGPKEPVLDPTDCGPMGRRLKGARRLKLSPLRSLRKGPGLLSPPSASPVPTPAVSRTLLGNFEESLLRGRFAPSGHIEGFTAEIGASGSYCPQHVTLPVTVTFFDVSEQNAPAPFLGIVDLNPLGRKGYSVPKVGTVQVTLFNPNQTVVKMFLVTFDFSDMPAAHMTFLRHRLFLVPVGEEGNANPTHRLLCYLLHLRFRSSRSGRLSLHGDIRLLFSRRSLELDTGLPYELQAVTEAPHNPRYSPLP
B8: Protein DDI1 homolog 1 (Homo sapiens), Q8WTU0 (parent)
chain: MLITVYCVRRDLSEVTFSLQVSPDFELRNFKVLCEAESRVPVEEIQIIHMERLLIEDHCSLGSYGLKDGDIVVLLQKDNVGPRAPGRAPNQPRVDFSGIAVPGTSSSRPQHPGQQQQRTPAAQRSQGLASGEKVAGLQGLGSPALIRSMLLSNPHDLSLLKERNPPLAEALLSGSLETFSQVLMEQQREKALREQERLRLYTADPLDREAQAKIEEEIRQQNIEENMNIAIEEAPESFGQVTMLYINCKVNGHPLKAFVDSGAQMTIMSQACAERCNIMRLVDRRWAGVAKGVGTQRIIGRVHLAQIQIEGDFLQCSFSILEDQPMDMLLGLDMLRRHQCSIDLKKNVLVIGTTGTQTYFLPEGELPLCSRMVSGQDESSDKEITHSVMDSGRKEH
partner: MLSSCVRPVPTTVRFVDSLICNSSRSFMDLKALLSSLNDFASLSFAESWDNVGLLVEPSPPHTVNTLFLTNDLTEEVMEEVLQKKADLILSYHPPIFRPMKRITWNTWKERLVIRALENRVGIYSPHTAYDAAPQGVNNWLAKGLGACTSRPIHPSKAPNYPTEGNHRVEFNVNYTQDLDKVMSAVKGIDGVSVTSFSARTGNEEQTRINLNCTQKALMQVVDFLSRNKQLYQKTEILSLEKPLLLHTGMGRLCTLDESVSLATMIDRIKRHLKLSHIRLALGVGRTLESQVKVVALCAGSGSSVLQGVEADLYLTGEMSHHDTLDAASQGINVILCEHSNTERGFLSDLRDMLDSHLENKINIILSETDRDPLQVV

Variants of: B1
Settings: with cdk6_human CDK6, Q00534
Chain of cdk6_human CDK6, Q00534 (Q00534 whole entry): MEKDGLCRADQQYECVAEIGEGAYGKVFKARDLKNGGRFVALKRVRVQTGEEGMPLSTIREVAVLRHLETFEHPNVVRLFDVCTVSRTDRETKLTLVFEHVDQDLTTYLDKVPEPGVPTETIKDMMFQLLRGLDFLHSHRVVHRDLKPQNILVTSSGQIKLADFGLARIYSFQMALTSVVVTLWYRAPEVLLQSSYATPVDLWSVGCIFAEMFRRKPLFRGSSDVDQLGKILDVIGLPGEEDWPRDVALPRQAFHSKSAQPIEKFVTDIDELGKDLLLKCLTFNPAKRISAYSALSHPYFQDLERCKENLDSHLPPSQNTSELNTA

Row | Variant | effect of a mutation on the interaction
1 | R117Q | with no effect

Variants of: B2
Settings: with ub2d4_human UBE2D4, Q9Y2X8
Chain of ub2d4_human UBE2D4, Q9Y2X8 (Q9Y2X8 whole entry): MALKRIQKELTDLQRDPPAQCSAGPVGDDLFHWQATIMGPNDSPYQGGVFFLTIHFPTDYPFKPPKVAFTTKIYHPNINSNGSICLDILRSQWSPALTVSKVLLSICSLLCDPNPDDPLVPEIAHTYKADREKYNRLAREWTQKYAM

Row | Variant | effect of a mutation on the interaction
2 | R97W | with no effect

Variants of: B3
Settings: with dnal4_human DNAL4, O96015

Row | Variant | effect of a mutation on the interaction
3 | N33S | with no effect

Variants of: B4
Settings: with dc1i2_human DYNC1I2, Q13409
Chain of dc1i2_human DYNC1I2, Q13409 (Q13409 whole entry): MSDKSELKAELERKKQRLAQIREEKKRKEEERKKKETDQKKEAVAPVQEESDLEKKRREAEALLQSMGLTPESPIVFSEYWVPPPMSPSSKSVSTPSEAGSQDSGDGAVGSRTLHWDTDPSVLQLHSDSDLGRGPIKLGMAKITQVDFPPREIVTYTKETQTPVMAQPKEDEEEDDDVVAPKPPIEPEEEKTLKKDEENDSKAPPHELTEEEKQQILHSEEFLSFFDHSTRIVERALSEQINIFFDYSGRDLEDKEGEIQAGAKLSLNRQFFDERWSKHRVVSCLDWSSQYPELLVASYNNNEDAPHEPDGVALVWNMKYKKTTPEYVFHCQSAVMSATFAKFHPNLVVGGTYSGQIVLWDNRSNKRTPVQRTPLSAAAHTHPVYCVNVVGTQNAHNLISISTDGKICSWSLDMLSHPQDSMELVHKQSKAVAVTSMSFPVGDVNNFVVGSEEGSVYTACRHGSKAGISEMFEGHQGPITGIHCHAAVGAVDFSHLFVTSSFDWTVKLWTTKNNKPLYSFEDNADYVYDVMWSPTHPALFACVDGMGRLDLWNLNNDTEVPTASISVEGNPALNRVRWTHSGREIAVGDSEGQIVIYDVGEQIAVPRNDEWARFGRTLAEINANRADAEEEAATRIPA

Row | Variant | effect of a mutation on the interaction
4 | A75T | with no effect

Variants of: B5
Settings: with lasp1_human LASP1, Q14847

Row | Variant | effect of a mutation on the interaction
5 | S173C | with no effect

Variants of: B6
Settings: with aldoa_human ALDOA

Row | Variant | effect of a mutation on the interaction
6 | N312S | with no effect

Variants of: B7
Settings: with atosb_human ATOSB

Row | Variant | effect of a mutation on the interaction
7 | S44F | disrupting interaction strength

Variants of: B8
Settings: with nif3l_human NIF3L1, Q9GZT8

Row | Variant | effect of a mutation on the interaction
8 | R208G | with no effect
9 | S63A | with no effect
10 | R87C | with no effect
11 | D323N | with no effect
